Reference: a protein production outcome set (Wang et al. 2014)

Experiment: label from the status in PepcDB records

With “MLNDQEVLSMSSVSLSPLFRRSIGFDRLNDLFDYAMQSETPNYPPYNIEKDGENNYRILIASAGFDQDELRIHLENQVLTISGQPDSEQVDKNIEYLHKGIARRAFKLSLRLDEHIEVQQADYENGLLKIELQRIIPEEKMPRQIPIGQSKSIKNIESSKIVNS” the protein production was “failed”.

In the case of “MLNEIVVFFSILVSSWNIYNSALSFYGLTWRVNQKIEYSDKTFSILVPAKNEEKVLGRLLDRLINQEYDKSKYEIIVVEDGSTDRTFQICKNYEENYDNVRCVKLDKSNVPNGKSRALNYAMKLAKFDIIGVFDADTFPRLDVLSYVSGSFDSDNVVAVQGKLIPINVRESIIARFASLEELFNEYSIGGRARFGLFVPLEGTCTFVKKSIIEEMGGWNEYSLTEDLDLSVKLTSAGYKIMYNPNVVAWREVASSLRWLIKQRLRWYRGHFEISLSMPKKIDPRIFDGILLIGTPIFMLMNLVNYSLVLIYQTPLFVVTMVIVSTATLLSFITAVGISRKHLIEYQYSILSLIYMNFVMLLNVTAVFLEIVRVPRVWIKTERSGKISVPEV”, the protein production is reported as “failed”.

With “MLNHPTHERLIELGLTGMAKAFEEQRRSPDLEALPFEDRIGLLVDREAAERDTRRLTTRLKIAALRQTACVEDVDLRTPRGIDRAVFAKLVEGRWIDRHENLLVTGATGLGKSWLACALGHKACRDNRSVLYHRVPRLFEALALARGDGRYARLLKSLGRAQLLILDDWGLSVLTAAERRDLLEILEDRHGRASTIVTSQLPVDTWHGAIGDPTVADAILDRLVHNAHRLQLTGESMRKRSAKTITLDGQPEH” the protein production was “failed”.

For “MLNKLMWLTGKAQEDWIEKILHLRQKIWPDYQRIKNDTLFKLYSHYPLYQWLSHYNGEVVAVINSLPVALDQSLDNLPQEGLNWVLSHLESTTPLTQSNYLAAVSVTVNPAYQRLGLSKLLLNRLKASAQEAQYKALIVPARPSQKENYPLISLEDYLKWKRVDNTIFDPWLRVHAQLGGKIAYPCQRSRVITANVAQWEQWLGHPLLQTGQYLVKGGLNPITINKEKDIGIYIEPNVWVIHDL”, the protein production was “failed”.

For “MLNNFLNLELLNISLSYPFLFLITTAIVLLLCSGFWKFHRSFYIGISSLSLIVSAFLILNNANAQGLEAKAFLATLNNDIVSFYASLVILCFSFLYLLMQKEENQGEFYALFLFMIASLLLMVSSSNLVLIFIGLESSSLALYTLIAMRGSDNAISSAIKYFSIAAVGAGFFVMAVAFIYLKTGTLDLSANLALKNEFQKDPMLLGAGVMIFVLCAIKLSLAPFHFWLKDVYYAAHTNLVAFISVVPKVAMLVVVIRLFDFLNNTGFEYIIIVLAIFSMLIGAFAALSQNNIKKMFAYSSVVHSSLVLIACIPLLKEQNFDGILLAIFGYWTLFAFANYAVFMILSNYENNSYESLNGLLVKKPLIAFCLSISVLSLAGIPPFGVFWGKFMILNTVILNGYWYLALFVALSSVIMLYAYLKILIHVLFMKNDRVYNIKFSFIQNFILAFCVCVSIFAILLML”, the protein production was “failed”.

In the case of “MLNPEQVKRFLETAKQDPLYPAFLLALGTGLRRGEILGLRWQDLDLQKGILQVRQSLIRTREGLKFEEPKTEKSRRQIPLPPSVVAALKRHKAWVNQNKLILGPDYEDHDLVFPVENGRPRDPKGFAEYFNRLLDKAGLPHIRLHDLRHTHATLLLLEGVHPKVVQERLGHSTVSITLDIYSHILPGLQEKAAERIDGLLQPKENPSPKEGTIKLEHHHHHH”, the protein production is reported as “not failed”.

With “MLNRGGFTYPGQRWKHCINTLLTGGVLLIVSASAYADSNALGYKIPGYELVYDAPMETTLTTPDLRPSDAVWISLFDNAQHTIELGQFYVANQAGTRLDSVLQHLRAAGERGVRIRLLLEEKGLKISTQDTLDQLKTIPNLELRVIPFERLSGGILHAKYLLVDGKQAYMGSQNLDWRALEHIHETGLLIDDPRVVNQISTIFEQDWQAQARLSNGETVPPLPASTDAVDRSGNYLVASPKAFNPAGVMDSEEELPRLLAEAQQQVRIQVMDYVPLSYGPDKTRPFYAVIDNAIRTAAARGVQVELMVSEWSTKMPNIAYLKSLALLPNIQIKTVSIPQVSSGFIPFARVIHSKIMTIDGTKTWIGTSNWSGGYLDNSRNLEMVIQNPAMAQRVDLLYTQLWNSAYAHPLRIDYDYPQPNPGGVKEKEQENTASSTTGGTVTAP” the protein production was “failed”.

With “MLNYLIFFPLISAFVVLLLNRGGVKVFSVVVSFMILALNLDTFADFLQGVSFDYNLSFKILKFFSFHVGVDSIALVLMLLSSLMIFLSFLFLKLEQKALISCIFFLEFAIMGLFSAKDGLLFYIFWEFSLLPLLYIMGVYGKDFRAGVKFFIYAFAGSILMLVALIYQAYLNYQLLNIFTFDLEIWKNNASAANFTEQLLLFGAFFIAFAIKAPLFPLHTWAPKVYANSPILVSVMLVVFKMAPFGFLLFCLPLFPDASVYFMPLIVALCIVSIVYNALIAYRAENIKELIAYSSISHLGVMILGIFSLNALGISGAVFYMFAHGIVTGTLFLMVELLYQRYHTYDISFYHSLAKKAPLFSIFFMLILLASVSLPLTVSFVGEFLILLGIAKINLFYALLAGLVIILGAIYMFAVFRKIFFMQKQSFIEGFSLRFREIVALVCIVVMIFGLGLMPNILLKPIQKDVDNLIKTMNIRAVEQNTLDFLSKIGEANVK” the protein production was “failed”.

With “MLPIASGNDDRNLIRYVDGGRFDEIMLTGDLTGLSSFLTNAGPNARDDFDLTVLMRAAEAGNLMVVARLLDLGANPRLTNPRGVTALHIAAIAGDDGIVECLIDAGAEVDAVDDQGRTPLWNAAAHHLPDSAVVDVLLRAGANVNLRDCNGVSPEDML” the protein production was “failed”.

For “MLPSPSSSSAPTKRIDPSELKRVFQMFDKNGDGRITKEELNDSLENLGIYIPDKDLTQMIHKIDANGDGCVDIDEFESLYSSIVDEHHNDGETEEEDMKDAFNVFDQDGDGFITVEELKSVMASLGLKQGKTLDGCKKMIMQVDADGDGRVNYKEFLQMMKGGGFSSSN”, the protein production was “not failed”.

With “MLQNRLNKARSHAEKHDVDAIVFFNMSNVRYLSGFTGSDGAVVLGRDASWFLTDSRYTTQASRQVVGLPTVEYRIKLDGITELVREQGFRRIGFESEHTAFAVYESLRQKLPKTELVPIGEELAQLRLIKDPSECELLSRVARLASEALLSILPLVKPGAVERELALELEFAMRRAGAENASFDFIVASGERGSLPHGRASDKALAAGELVTIDFGARYEGYCSDETVTVAVGVPDERQCQIYGIVKEAHDRAIAAVRPGAELREIDRIARGYIEEQGYGAFFGHGLGHGVGLDVHEKPVVSPRGEGVAAVGMVFTIEPGIYIPGWGGVRIEDTVIVTEDGCRPITMIPKELMIL” the protein production was “failed”.

In the case of “MLRFAVLGHPVAHSLSPAMHAFALESLGLEGSYEAWDTPLEALPGRLKEVRRAFRGVNLTLPLKEAALAHLDWVSPEAQRIGAVNTVLQVEGRLFGFNTDAPGFLEALKAGGIPLKGPALVLGAGGAGRAVAFALREAGLEVWVWNRTPQRALALAEEFGLRAVPLEKAREARLLVNATRVGLEDPSASPLPAELFPEEGAAVDLVYRPLWTRFLREAKAKGLKVQTGLPMLAWQGALAFRLWTGLLPDPSGMEEAARRALGV”, the protein production is reported as “not failed”.

With “MLRFGFAAVLLVLAGCSAPMGPEALGPGSYQAAPDPGPFLTPADAQRAFPAVVARVEPVAEAICRERTRGVPCDFQIAVDARPGLDPNAFQTLDDYGRPVIGLTLSLISDARNVDELAFVVGHETAHHILGHIPRQRETALTGAVLAGVLAQMGGADAQTIRSVQEFGANVGARSYSKNFELEADGLGTEIAIRAGYDPVHGAQFFTRLPDPGDTFLGSHPPNAQRIAAVRRAAESIGYVSAWLEHHHHHH” the protein production was “failed”.

With “MLRFPGQGHHNPDDVVIGLLDLAARVDEALAVQAVAFGLGADEVAVRHQIVLRHLTSPGARAFGATTGDGRLVGFVYGMPNDRTHWWSTVVEPYLRGQGHEDWLDNSFVITELHVHPHFQNHGIGRSLITTITDGAAEPRSILSAIDTESPARGLYHSLGYEDLARQVLFPSAPRPYAVMGAPLPLRRR” the protein production was “failed”.

In the case of “MLRGDILDSKRTSIMTRFSSLLLALSVLLLPLRPAQGQPAERTSSLTVEQIMQAPETWIGDWPTNARWHESGQALYFNWNPGGDFPSDSLYKVSRSGGAPQKVSPAERRSNPPTFDGWHHGEHVYTDDFSRKVYAADGDLYLYNRETDTQTRLTDTPAREGNPRFGLEEDRVLFERDDNLFSVHLSTGQIRQLTNVQSGREPQEGAPSPRERFLEEQQLELFETLRERNEEEEQADEARERDREADDPPPPFYTGDAEVSALRMDPTERFVTIAQQSQPDAADPTQVIDYVTESGQADVRRARPKVGIPPGDFALHVQDLKRDTTIAVNLHQLPGAYDVPAYRQEQGAELDSSEAKRALYSYGPYWSADGDHGVLVVRADNNKDRWIARLDPETGDLTVLDRQHDTAWIGGPGISAYGGPGNVGWMPDGEHFYFQSEATGYSHLYTVDVETGETTQLTSGDFEVLDARLSQDGSTWTLTTNRHSPHQQHVERMPADGGDITRLTQMTGTHDAVLSPDGTRLATLYSTTNQPADLYLKDATADADPVRITESPTDEWAAYDWRMPELTRFEASDGVEVPAHVFRPDNPNGAAVFFVHGAGYLQNVLKDFPPYFREYMFHNMLTDLGYTVVDVDYRGSAGYGRDWRTAVYRHMGGRDLQDYVDAAKWVGDTYGIPAERRFIYGGSYGGFMTLMALFTEPEHFGGGAALRSVTDWAHYNDVYTSNILNTPQTDSLAYARSSPIYHAEGLEDPLLMPHGLVDTNVQPQDIFRLTQRLIELGKENWELAIYPVEGHGFEEPSSWTDEYRRIFELIQESVGPERPQN”, the protein production is reported as “failed”.

For “MLRGLRIIAENKIGVLRDLTTIIAEEGGNITFAQTFLIKHGEHEGKALIYFEIEGGDFEKILERVKTFDYIIEIEEEESFERVFGKRVIILGGGALVSQVAIGAISEADRHNLRGERISVDTMPVVGEEEIAEAVKAVSRLHRAEVLVLAGGIMGGKITEEVKKLRKSGIRVISLSMFGSVPDVADVVISDPVMAGTLAVMHISEKAKFDLDRVKGRRI”, the protein production was “not failed”.

With “MLRIFSAKNEVDSKYIFMLAFMLALFSSGVPPEIVILHLSREDSFEPYTKVFKKIRNLVSGYRYKFSSAITYSIKNLNIRFLKEFLIRLSQAVTFGDDMIEFLSREIDFTLSEYNAYSARLIESMNNFLTIYATLNSSLTFLVADITILSLIYSGGTTLIIQLTILSLALLGNLTLVMYLLYRPENYIRYNVIDKFVLTFTISLSIIFSVIYTSYIVLMGTGIVLLGIGLRYRLYENKINRIERHFLLFIRYFSRNYAIVSNLKESLMAVLRGDLGDVRPLIRRSLNRLNFGIDKEKIFRLIGDESGSILVSMLSKVLYETISMGGNAMIIGEILSKIGDSVLNIRSRKEQNGRAFETSIYALQTASAGVSAALISIVGMLNNIFSTQNVSTVFSFSEVNIDIISRIFLIILLILSFANGIAITLAYGKSLYVSLYFIGILIILSSISYHIVLILTGNIFKELASPSGLLQTT” the protein production was “failed”.

For “MLRLVKKSVIGLVDWFLYKALKTSQKQFLSSLLTEKQKQAIKRVIKPGKKQTQLRKIERLKYRLYNLGFTNRALEDLQLICRESGEPYLKRLAAWELALWHANQYTTEDAKACLRYLDIATTGVKDRDDLRAVAIVKAECYDLLGEREQGKELVQQMIETQPHPDLYLAAANLETTVAQRMKWINKVFAHYGTEPLELTEQADEKSPYDALGVNGIDESSENDEQPKVTVIIPAFNAESVIQTSIESMQKQTWTNLEIFVVDDCSTDETASIVHQYAEQDHRVHYLKTETNSGAYVARNIALQHATGDFVTINDADDWSHSRKIEIQVRHLLKHPNIIGNFSQQVRATNDLKFYRRGKPGLYIFANMSSFMFRRKPAMDKLGYWDCVRFAGDSEFVKRIKLAFGEKAVVELPTAPLSFQRQSGESLTSHSAFGFPGYFMGARREYAEAHDHFHRTSQEGLRYSFPQKERPFPVPEPMLPNRQPKSAGRRHFDVILASEFRLLGGTNMSNVEEIKAQREMGLRTGLIQLSRYDLNSVEAINPNVRELIDGDQVQMIVYGEQVSCDVLIVRHPPILQEWQRYVPNVEAKSVHVIVNQPPQRDYGDNGSVLYELPRCIDHLQAYFGKKGIWYPIGPNVREALYEHHHKDLQAIPFSDQDWVNIINVKEWKRVTRREKDGKIKIGRHSRDQYVKWPKDRATMLQIYPDKEPFEVHILGGAKSPTKVLGSLPANWHVREFGEVHPREFLAELDVFVYFTHPDWVEAFGRVVFEAMAAGVPVIVPHEYEKLFGEAAIYAEITEVQEKVMKLMADDKYYQSQVEKALIYVENQFGYSQHAARLETFLHEDERAEV”, the protein production was “failed”.
